Measurements from patent US20210316003A1 (Immunomedics, Inc., priority 2020, published 2021).
Read-outs that look alike come from different tables or passages of the source.

Key:
[1] = system: patients with metastatic urothelial cancer (mUC); details: 10 mg/kg, cited from earlier work
patients with mSCLC = details: in vivo
Experimental: Doses of 8 or 10 mg/kg were given on days 1 and 8 of a 21-day cycle, with contingencies to delay (maximum of 2 weeks). Toxicities were managed by supportive hematopoietic growth-factor therapy for blood cell reduction, dose delays and/or modification as specified in the protocol (e.g., 25% of prior dose), or by standard medical practice. Treatment was continued until disease progression, initiation of alternative anticancer therapy, unacceptable toxicity, or withdrawal of consent.
Safety evaluations were conducted during scheduled visits or more frequently if warranted.
Statistical Analyses—The data included in the analyses were derived from patients enrolled from November 2013 to June 2016, with follow-up through Jan. […] The frequency and severity of adverse events (AEs) were defined by MedDRA Preferred Term and System Organ Class (SOC) version 10, with severity assessed by NCI-CTCAE v4.03.

[2] = system: patients with metastatic urothelial cancer (mUC)
Experimental: Endpoints included safety, investigator-evaluated objective response rate (ORR per RECIST 1.1), clinical benefit rate, duration of response (DOR), progression-free survival (PFS), and overall survival (OS). Sequencing analysis of differentially mutated and expressed genes and pathways was performed in subsets of tumors from responders and non-responders.
Hematopoietic growth factors or blood transfusions were allowed at the investigator's discretion, but not prior to the first dose. Other supportive care (antiemetics, anti-diarrheal medications, or bone-stabilizing agents) were allowed as medically needed.
Additional secondary objectives included assessment of pharmacokinetics and immunogenicity, which were previously reported by Ocean and colleagues (Ocean et al., 2017, Cancer 123:3843-54). Safety evaluations included adverse events (AEs), serious adverse events (SAEs), laboratory safety evaluations, vital signs, physical examinations, and 12-lead electrocardiograms (ECG; performed at baseline, after completion of the infusion on day 1 of every even-numbered treatment cycle, at the end of treatment, and at the end of the study). AEs were graded according to the National Cancer Institute Common Terminology Criteria for Adverse Events, version 4.0.
The data cut-off date for this analysis was Sep. 1, 2018. ORR and CBR were calculated with 95% confidence intervals estimated by the Clopper-Pearson method (Clopper & Pearson, 1934, Biometrika 26:404-13). PFS, OS, and time-to-event endpoints were analyzed by the Kaplan-Meier method, with medians and corresponding 95% confidence intervals determined by the Brookmeyer and Crowley method with log-log transformation. Descriptive statistics were used to characterize AEs. Fischer's exact test was applied to a matrix of pathway-associated gene counts of mutated and wild type phenotypes between responders and non-responders to identify pathways enriched in either of the two response groups. P-values for single sample GSEA (ssGSEA) enrichment score differences between the responder and non-responder patient groups were obtained from the Mann-Whitney statistical test.

[3] = Serum pharmacokinetics (ELISA for IgG and intact conjugate, HPLC for SN-38); format: in vivo, human; details: patients
Experimental: Two ELISA methods were used to measure the clearance of the IgG (capture with anti-hRS7 idiotype antibody) and the intact conjugate (capture with anti-SN-38 IgG/probe with anti-hRS7 idiotype antibody). SN-38 was measured by HPLC.

[4] = mUC, N = 45, regardless of causality
[5] = mUC, N = 45, listed as Sacituzumab Govitecan

Substance: sacituzumab govitecan
- Complete responses (CR), number ([1]; 35 mUC patients): 2
- Confirmed partial responses (PR), number ([1]; 35 mUC patients): 6
- Objective response rate (ORR) ([1]; 35 mUC patients): 29%
- PR pending confirmation, number ([1]; 35 mUC patients): 2
- Treated patients with a reduction in tumor size ([1]; 35 mUC patients): Seventy-four
- ORR in patients with liver metastases ([1]; mUC): 25%
- Anemia, grade 3 or 4 (patients with mSCLC): 8%
- Diarrhea, grade 3 or 4 (patients with mSCLC): 9%
- Fatigue, grade 3 or 4 (patients with mSCLC): 13%
- Hyponatremia, grade 3 or 4 (patients with mSCLC): 8%
- Increased alkaline phosphatase, grade 3 or 4 (patients with mSCLC): 8%
- Infusion-related reactions (patients with mSCLC): No infusion-related reactions were reported
- Neutropenia, grade 3 or 4 (patients with mSCLC): 34%
- Patients with dose reduction (patients with mSCLC; 8 mg/kg): 13%
- Maximum tolerated dose ([2]; days 1 and 8 every 21 days, intravenous): 10 mg/kg
- Patients with dose reductions ([2]; mUC, 18 of 45): 40%
- AEs leading to death or treatment-related deaths ([2]; mUC, N = 45): no treatment-related deaths were reported
- Anemia, grade ≥3 ([2]; mUC, N = 45): 13%
- Diarrhea, grade ≥3 ([2]; mUC, N = 45): 9%
- Discontinued for treatment-related AE, % ([2]; mUC, N = 45): (11.1) %
- Fatigue, grade ≥3 ([2]; mUC, N = 45): 9%
- Febrile neutropenia, grade ≥3 ([2]; mUC, N = 45): 7%
- Hypophosphatemia, grade ≥3 ([2]; mUC, N = 45): 11%
- Neutropenia, grade ≥3 ([2]; mUC, N = 45): 38%
- Peripheral neuropathy or cardiovascular AEs of grade 3 or higher ([2]; mUC, N = 45): no cases
- Alopecia, Any Grade, % of patients [2, 4]: (40.0) %
- Alopecia, Any Grade, No. of patients [2, 4]: 18
- Alopecia, Grade 3, No. of patients [2, 4]: 0
- Alopecia, Grade 4, No. of patients [2, 4]: 0
- Anemia, Any Grade, % of patients [2, 4]: (33.3) %
- Anemia, Any Grade, No. of patients [2, 4]: 15
- Anemia, Grade 3, % of patients [2, 4]: (13.3) %
- Anemia, Grade 3, No. of patients [2, 4]: 6
- Anemia, Grade 4, No. of patients [2, 4]: 0
- Any adverse event, Any Grade, % of patients [2, 4]: (100) %
- Any adverse event, Any Grade, No. of patients [2, 4]: 45
- Any adverse event, Grade 3, % of patients [2, 4]: (55.6) %
- Any adverse event, Grade 3, No. of patients [2, 4]: 25
- Any adverse event, Grade 4, % of patients [2, 4]: 17.8%
- Any adverse event, Grade 4, No. of patients [2, 4]: 8
- Back pain, Any Grade, % of patients [2, 4]: (22.2) %
- Back pain, Any Grade, No. of patients [2, 4]: 10
- Back pain, Grade 3, No. of patients [2, 4]: 0
- Back pain, Grade 4, No. of patients [2, 4]: 0
- Constipation, Any Grade, % of patients [2, 4]: (44.4) %
- Constipation, Any Grade, No. of patients [2, 4]: 20
- Constipation, Grade 3, No. of patients [2, 4]: 0
- Constipation, Grade 4, No. of patients [2, 4]: 0
- Cough, Any Grade, % of patients [2, 4]: (31.1) %
- Cough, Any Grade, No. of patients [2, 4]: 14
- Cough, Grade 3, No. of patients [2, 4]: 0
- Cough, Grade 4, No. of patients [2, 4]: 0
- Decreased appetite, Any Grade, % of patients [2, 4]: (37.8) %
- Decreased appetite, Any Grade, No. of patients [2, 4]: 17
- Decreased appetite, Grade 3, No. of patients [2, 4]: 0
- Decreased appetite, Grade 4, No. of patients [2, 4]: 0
- Diarrhea, Any Grade, % of patients [2, 4]: (68.9) %
- Diarrhea, Any Grade, No. of patients [2, 4]: 31
- Diarrhea, Grade 3, No. of patients [2, 4]: 4
- Diarrhea, Grade 4, No. of patients [2, 4]: 0
- Dizziness, Any Grade, % of patients [2, 4]: (22.2) %
- Dizziness, Any Grade, No. of patients [2, 4]: 10
- Dizziness, Grade 3, No. of patients [2, 4]: 0
- Dizziness, Grade 4, No. of patients [2, 4]: 0
- Fatigue, Any Grade, % of patients [2, 4]: (57.8) %
- Fatigue, Any Grade, No. of patients [2, 4]: 26
- Fatigue, Grade 3, % of patients [2, 4]: (8.9) %
- Fatigue, Grade 3, No. of patients [2, 4]: 4
- Fatigue, Grade 4, No. of patients [2, 4]: 0
- Febrile neutropenia, Any Grade, % of patients [2, 4]: (6.7) %
- Febrile neutropenia, Any Grade, No. of patients [2, 4]: 3
- Febrile neutropenia, Grade 3, % of patients [2, 4]: (6.7) %
- Febrile neutropenia, Grade 3, No. of patients [2, 4]: 3
- Febrile neutropenia, Grade 4, No. of patients [2, 4]: 0
- Hypophosphatemia, Any Grade, % of patients [2, 4]: (20.0) %
- Hypophosphatemia, Any Grade, No. of patients [2, 4]: 9
- Hypophosphatemia, Grade 3, % of patients [2, 4]: (11.1) %
- Hypophosphatemia, Grade 3, No. of patients [2, 4]: 5
- Hypophosphatemia, Grade 4, No. of patients [2, 4]: 0
- Nausea, Any Grade, % of patients [2, 4]: (66.7) %
- Nausea, Any Grade, No. of patients [2, 4]: 30
- Nausea, Grade 3, % of patients [2, 4]: (2.2) %
- Nausea, Grade 3, No. of patients [2, 4]: 1
- Nausea, Grade 4, No. of patients [2, 4]: 0
- Neutropenia (incl. neutrophil count decreased), Any Grade, % of patients [2, 4]: (51.1) %
- Neutropenia (incl. neutrophil count decreased), Any Grade, No. of patients [2, 4]: 23
- Neutropenia, Grade 3, % of patients [2, 4]: (22.2) %
- Neutropenia, Grade 3, No. of patients [2, 4]: 10
- Neutropenia, Grade 4, % of patients [2, 4]: 15.6%
- Neutropenia, Grade 4, No. of patients [2, 4]: 7
- Pyrexia, Any Grade, % of patients [2, 4]: (24.4) %
- Pyrexia, Any Grade, No. of patients [2, 4]: 11
- Pyrexia, Grade 3, No. of patients [2, 4]: 0
- Pyrexia, Grade 4, No. of patients [2, 4]: 0
- Rash, Any Grade, % of patients [2, 4]: (22.2) %
- Rash, Any Grade, No. of patients [2, 4]: 10
- Rash, Grade 3, No. of patients [2, 4]: 0
- Rash, Grade 4, No. of patients [2, 4]: 0
- Vomiting, Any Grade, % of patients [2, 4]: (31.1) %
- Vomiting, Any Grade, No. of patients [2, 4]: 14
- Vomiting, Grade 3, % of patients [2, 4]: (2.2) %
- Vomiting, Grade 3, No. of patients [2, 4]: 1
- Vomiting, Grade 4, No. of patients [2, 4]: 0
- AEs leading to death or treatment-related deaths [2, 5]: No AEs leading to death or treatment-related deaths were reported
- Peripheral neuropathy or cardiovascular AEs of grade 3 or higher [2, 5]: No cases
- Clearance of intact conjugate compared with the IgG ([3]; ELISA): cleared more quickly than the IgG
- Time for the conjugate to clear from the serum ([3]; serum): ≤ 3 days
- SN-38 in the serum bound to the IgG (non-glucuronidated form) ([3]; serum, HPLC (Unbound and TOTAL)): > 95%
